Results as given in US20230391892A1 (published 2023).

How the values were obtained:
A119 = A119 (Homo sapiens (Human), UniProt P0DOX7 1-214); assay: BLI (Octet RED96), antagonist captured on biosensor, ligand in solution
Description: (§1) Binding activities of individual bifunctional antagonists to human ligands were measured by biolayer interferometry (BLI) using Octet RED96 (FortéBIO, Pall Corporation, USA). Binding analysis was performed by first capturing the polypeptide bifunctional antagonists to biosensors. To measure the rate of association and dissociation, the bifunctional antagonists-captured biosensors were dipped in wells containing different concentrations of ligands (such as TNF-α, TGF-β1 and TGF-β3) diluted in 1× kinetic buffer for 10 min followed by 10-20 min in 1× kinetic buffer. Note that all the ligands tested were recombinantly produced based on their human sequences. The bifunctional polypeptide antagonists-captured sensors were also submerged in wells containing 1×kinetic buffer to allow single reference subtraction in order to compensate for natural dissociation of the captured bifunctional antagonists. The binding sensorgrams were collected using the 8-channel detection mode on the biosensor. Data were acquired and analyzed using the FortéBIO Data acquisition software v11.1 (FortéBIO, Pall Corporation, USA)

A120 = A120 (Homo sapiens (Human), UniProt P0DOX7 1-214); assay: as above
Description: as §1

- Kd (A119): ~1 pM
- Kd (A120): ~1 pM
B1: TGF-β3 (ligand)
chain: ALDTNYCFRNLEENCCVRPLYIDFRQDLGWKWVHEPKGYYANFCSGPCPYLRSADTTHSTVLGLYNTLNPEASASPCCVPQDLEPLTILYYVGRTPKVEQLSNMVVKSCKCS
notes: also called Transforming Growth Factor-Beta 3
